The chains are these.
B1: SNX8 (parent)
chain: RMVPALPPKRMLGADREFIEARRR
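Note: lentivirally expressed fusions sorted by FACS into six bins by GFP to DsRed ratio, PSI derived from sequencing read proportions per bin multiplied by bin number.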

The variants in the data set derive from B1. Description: protein stability index of a GFP-peptide fusion (GPS, HEK-293T) (PSI 1-6); higher = more stable. The settings on record: c terminus: a fixed tail appended.
Regarding RMVPALPPDRMLGADREFIEARRR [K9D], the protein stability index came to 4.12. For the variant RMVPALPPTRMLGADREFIEARRR [K9T], the protein stability index was found to be 3.64. For the variant RMVPALPPQRMLGADREFIEARRR [K9Q], the protein stability index worked out at 4.73.

Turning to RMVPALPPCRMLGADREFIEARRR [K9C], the protein stability index came out at 2.95.

As to RMVPALPPYRMLGADREFIEARRR [K9Y], the protein stability index came to 3.95. For RMVPALPPERMLGADREFIEARRR [K9E], the protein stability index was 4.12.

Take RMVPALPPGRMLGADREFIEARRR [K9G]: the protein stability index came out at 3.6.

Consider RMVPALPPIRMLGADREFIEARRR [K9I], for which the protein stability index came to 4.17. To RMVPALPPFRMLGADREFIEARRR [K9F] belongs 3.83. For the variant RMVPALPPHRMLGADREFIEARRR [K9H], the protein stability index came to 4.53.

Consider RMVPALPPMRMLGADREFIEARRR [K9M], for which the protein stability index is 3.81. As to RMVPALPPPRMLGADREFIEARRR [K9P], the protein stability index is 4.37. Then RMVPALPPLRMLGADREFIEARRR [K9L], with 4.01; and RMVPALPPSRMLGADREFIEARRR [K9S], with 4.35. With RMVPALPPWRMLGADREFIEARRR [K9W], the protein stability index was 4.02. Consider RMVPALPPRRMLGADREFIEARRR [K9R], for which the protein stability index is 2.99. Then RMVPALPPNRMLGADREFIEARRR [K9N], with 4.26; and RMVPALPPARMLGADREFIEARRR [K9A], with 4.09; and RMVPALPPVRMLGADREFIEARRR [K9V], with 4.61.

Turning to RMVPALPMKRMLGADREFIEARRR [P8M], the protein stability index is 3.06.

Consider RMVPALPTKRMLGADREFIEARRR [P8T], for which the protein stability index was 3.31. Then RMVPALPYKRMLGADREFIEARRR [P8Y], with 3.88; and RMVPALPSKRMLGADREFIEARRR [P8S], with 3.73; and RMVPALPRKRMLGADREFIEARRR [P8R], with 3.88. To RMVPALPVKRMLGADREFIEARRR [P8V] belongs 3.44; to RMVPALPWKRMLGADREFIEARRR [P8W], 3.31; to RMVPALPQKRMLGADREFIEARRR [P8Q], 3.79.

Take RMVPALPLKRMLGADREFIEARRR [P8L]: the protein stability index turned out to be 3.17. Consider RMVPALPKKRMLGADREFIEARRR [P8K], for which the protein stability index stood at 3.87. RMVPALPNKRMLGADREFIEARRR [P8N]: the protein stability index was found to be 3.79. To RMVPALPPKRMLAADREFIEARRR [G13A] belongs 2.81; to RMVPALPPKRMLCADREFIEARRR [G13C], 2.17; to RMVPALPPKRMLIADREFIEARRR [G13I], 2.79. Then RMVPALPPKRMLDADREFIEARRR [G13D], with 3.79. To RMVPALPPKRMLEADREFIEARRR [G13E] belongs 3.57.

With RMVPALPPKRMLKADREFIEARRR [G13K], the protein stability index turned out to be 3.72. Regarding RMVPALPPKRMLHADREFIEARRR [G13H], the protein stability index stood at 3.37. With RMVPALPPKRMLFADREFIEARRR [G13F], the protein stability index was found to be 2.22. Then RMVPALPPKRNLGADREFIEARRR [M11N], with 3.77; and RMVPALPPKRRLGADREFIEARRR [M11R], with 4.58. Regarding RMVPALPPKRPLGADREFIEARRR [M11P], the protein stability index is 4.42. As for RMVPALPPKRGLGADREFIEARRR [M11G], the protein stability index was found to be 4.28. Then RMVPALPPKRLLGADREFIEARRR [M11L], with 3.69; and RMVPALPPKRQLGADREFIEARRR [M11Q], with 3.6. Take RMVPALPPKRFLGADREFIEARRR [M11F]: the protein stability index came out at 3.36. RMVPALPPKRELGADREFIEARRR [M11E]: the protein stability index amounted to 3.91. On to RMVPALPPKRYLGADREFIEARRR [M11Y], for which the protein stability index is 2.99. RMVPALPPKRALGADREFIEARRR [M11A]: the protein stability index was determined as 3.86. As for RMVPALPPKRILGADREFIEARRR [M11I], the protein stability index turned out to be 4.78. Then RMVPALPPKRWLGADREFIEARRR [M11W], with 2.54; and RMVPALPPKRHLGADREFIEARRR [M11H], with 3.52. Regarding RMVPALPPKRSLGADREFIEARRR [M11S], the protein stability index stood at 4.23. Then RMVPALPPKRCLGADREFIEARRR [M11C], with 3.46. To RMVPALPPKRTLGADREFIEARRR [M11T] belongs 4.27; to RMVPALPPKRKLGADREFIEARRR [M11K], 3.94. To RMVPALPPKRVLGADREFIEARRR [M11V] belongs 3.37. On to RMVPALPPKRDLGADREFIEARRR [M11D], for which the protein stability index is 4.62. On to RMVPALPPKVMLGADREFIEARRR [R10V], for which the protein stability index was found to be 4.04. Then RMVPALPPKHMLGADREFIEARRR [R10H], with 4.21; and RMVPALPPKTMLGADREFIEARRR [R10T], with 4.24; and RMVPALPPKPMLGADREFIEARRR [R10P], with 4.44. For RMVPALPPKCMLGADREFIEARRR [R10C], the protein stability index was determined as 3.61. To RMVPALPPKSMLGADREFIEARRR [R10S] belongs 4.05; to RMVPALPPKAMLGADREFIEARRR [R10A], 4.23; to RMVPALPPKNMLGADREFIEARRR [R10N], 3.98.

Regarding RMVPALPPKIMLGADREFIEARRR [R10I], the protein stability index came out at 3.94. For RMVPALPPKFMLGADREFIEARRR [R10F], the protein stability index amounted to 3.39. In the case of RMVPALPPKKMLGADREFIEARRR [R10K], the protein stability index was 3.81. On to RMVPALPPKGMLGADREFIEARRR [R10G], for which the protein stability index stood at 4.16.

Take RMVPALPPKLMLGADREFIEARRR [R10L]: the protein stability index was 3.5. Turning to RMVPALPPKQMLGADREFIEARRR [R10Q], the protein stability index turned out to be 4.39.

RMVPALPPKYMLGADREFIEARRR [R10Y]: the protein stability index was determined as 3.71.

For RMVPALPPKDMLGADREFIEARRR [R10D], the protein stability index was 4.61.

With RMVPALPPKEMLGADREFIEARRR [R10E], the protein stability index was 4.84. To RMVPALPPKMMLGADREFIEARRR [R10M] belongs 4.06. To RMVPALPPKRMIGADREFIEARRR [L12I] belongs 4.08.

With RMVPALPPKRMCGADREFIEARRR [L12C], the protein stability index was 3.91. Take RMVPALPPKRMVGADREFIEARRR [L12V]: the protein stability index was 4.42. Then RMVPALPPKRMTGADREFIEARRR [L12T], with 4.43; and RMVPALPPKRMPGADREFIEARRR [L12P], with 4.18.

Regarding RMVPALPPKRMSGADREFIEARRR [L12S], the protein stability index is 4.41. To RMVPALPPKRMDGADREFIEARRR [L12D] belongs 4.54; to RMVPALPPKRMFGADREFIEARRR [L12F], 4.12. To RMVPALPPKRMAGADREFIEARRR [L12A] belongs 4.53; to RMVPALPPKRMKGADREFIEARRR [L12K], 3.25.

Regarding RMVPALPPKRMGGADREFIEARRR [L12G], the protein stability index was determined as 4.66. Then RMVPALPPKRMEGADREFIEARRR [L12E], with 5.11; and RMVPALPPKRMYGADREFIEARRR [L12Y], with 3.73; and RMVPALPPKRMHGADREFIEARRR [L12H], with 4. Then RMVPALPPKRMNGADREFIEARRR [L12N], with 4.89. For the variant RMVPALPPKRMQGADREFIEARRR [L12Q], the protein stability index was found to be 4.61. To RMVPALPPKRMMGADREFIEARRR [L12M] belongs 3.95; to RMVPALPPKRMRGADREFIEARRR [L12R], 4.19. To RMVPALPPKRMWGADREFIEARRR [L12W] belongs 4.05.

These data come from the supplement of paper PMC10567573.
